Measurements from patent US20200200750A1 (E AND S HEALTHCARE, published 2020).

Target: T1, human thioredoxin-1 (Trx1) protein (human, UniProt P10599 1-105)
T1 construct: also called naked Trx1; antigen
T1 sequence (looked up): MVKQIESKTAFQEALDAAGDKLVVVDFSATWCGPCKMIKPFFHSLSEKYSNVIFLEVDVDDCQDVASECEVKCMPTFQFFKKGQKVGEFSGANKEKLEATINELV
Assay: ELISA on coated Trx1 (100 ng/well), antibody diluted 1/5 from 0.1 µM, fit with Prism

Kd: 11 pM
B1: monoclonal antibody B266-1 (antibody, V domains shown)
VH: EVQLQQSGAELVKPGASVKLSCTASGFNIKDTFMHWVKQRPEQGLEWIGRIDPANGNTKYDPKFQGKATITADTSSNTAYLQLSSLTSEDTAVYYCALLQYSAMDYWGQGTSVTVSS
VL: QIVLTQSPAIMSASPGEKVTMTCSASSRISYMYWYQQKPGTSPKRWIYDTSKLASGVPARFSGSGSGTSYSLTISTMEAEDAATYYCHQRSSYPTFGAGTKLELKS
